Molecular target: the molecule itself
Experiment: crystal structure; crystals grown in lipidic cubic phase (8.8 MAG for apo, 9.9 MAG for GSH and GSO3- complexes), protein at 30 mg/ml, 20 °C; apo, with 7 mM GSH, with 7 mM GSO3-; homo-trimer

B1: Microsomal glutathione S-transferase 2 (human) (enzyme)
chain: not shown
notes: Microsomal glutathione S-transferase 2 (MGST2), human; cDNA from IMAGE clone 5277851 cloned in pPICZA; Integral membrane protein, homo-trimer in the crystals; The terminal ends are disordered in the crystal structures; also called MGST2; apo-MGST2; source: Pichia pastoris KM71H, purified (Ni-Sepharose, S-hexylglutathione agarose, SEC) in DDM
  stoichiometry N: 3

— publication PMC7979937, “Crystal structures of human MGST2 reveal synchronized conformational changes regulating catalysis” (Nature Communications, 2021)
